According to US20230203146A1:
Like-named read-outs stand apart in the source and are kept apart here.

B1: VHH 14A08 (VHH, not shown: small tags and cut ends)
VHH: EVQLVESGGGLVQAGGSLRLSCASSGFTFDDYAIGWFRQAPGKEREGVSCISSSDGSTYYADSVKGRFTISSDNAKNTVYLQMNSLKPEDTAVYYCAARPPFHSCSEYENDYWGQGTQVTVSS
B2: VHH 13A02 (VHH, not shown: small tags and cut ends)
VHH: EVQLVESGGGLVQAGGSLRLSCAASGGTFSSYSMGWFRQAPGKEREFIAAINWNGDSTYYEDSVKGRFTVSRDNAKNTVYLQMNSLKPEDTAVYYCAATGWGRAYEQAYEYDVWGQGTQVTVSS
B3: VHH 12A08 (VHH, not shown: small tags and cut ends)
VHH: EVQLVESGRGLVQAGGSLRLSCAASGSIFSINAMLWYRQAPGKQRELVAAITSGGSTNYADSVKGRFTISRDNAKNTVYLQMNSLKPEDTAVYYCAADSDYSSDYYYWGQGTQVTVSS
B4: VHH 25F01 (VHH, not shown: small tags and cut ends)
VHH: EVQLVESGGGLVQAGGSLRLSCAVSGLPFDDYVIGWFRQAPGKEREGVSCISSSDGSTYYADSVKGRFTISSDNAKNTVYLQMNSLKPEDTAAYYCAAGGPRINIATMTCSHDEYEYDYWGQGTQVTVSS
B5: VHH 25D08 (VHH, not shown: small tags and cut ends)
VHH: EVQLVESGGGLVQAGGSLRLSCAASGFTFDDYAIGWFRQAPGKDLEGVSCISSSDGSTYYADSVKGRFTISSDNAKNTVYLQMNSLKPEDTAVYYCAAVNGLGPFSVPVPVYDFWGQGTQVTVSS
B6: VHH 24B05 (VHH, not shown: small tags and cut ends)
VHH: EVQLVESGGGLVQPGGSLRLSCAASGFTLDYYAIGWFRQAPGKEWEGVSCISSSDGSTYYADSVKGRFTISRDNAKNTVYLQMNSLKPEDTAVYYCATDSIVCGSYYGMDYWGKGTQVTVSS
B7: VHH 25G04 (VHH, not shown: small tags and cut ends)
VHH: EVQLVESGGGLVQPGGSLRLSCAASGFTFGSYDMSWVRQAPGKGPEWVSAINSRGGSTYYADSVKGRFTISRDNAKNTLYLQMNSLKPEDTAVYYCATDPYSLSYYGYPLYDYWGQGTQVTVSS
B8: VHH 28D10 (VHH, not shown: small tags and cut ends)
VHH: EVQLVESGGGLVQAGGSLRLSCAASGFTLDDYAIGWFRQAPGKEREGVSCIRDSDGSTYYADSVKGRFTISSDNDKNTVYLQMNSLKPEDTAVYYCAAVPAGRLRFGEQWYPLYEYDAWGQGTQVTVSS
B9: VHH 32H10 (VHH, not shown: small tags and cut ends)
VHH: EVQLVESGGGLVQAGGSLRLSCAASGFDFEDYDMGWFRQAPGKEREGVSYISSSDGSTYYTDSVKGRFTISSDNAKNTVYLQMNSLIPEDTAVYYCAARPWTRRVYGSSWLARSLDEYEYDYWGQGTQVTVSS
B10: VHH 29B08 (VHH, not shown: small tags and cut ends)
VHH: EVQLVESGGGVVQAGDSVRLSCAASGPTFRSYTMAWFRQTPGKERDIVAAISSSLGRTYYADSVKGRFQILRDNAKETVWLQMNSLKPEDTAVYICAASRSLNLAYTTKPYDYWGQGTQVTVSS
B11: VHH 1D01 (VHH, not shown: small tags and cut ends)
VHH: EVQLVESGGGLVQAGGSLRLSCAASGFTFDDYALGWFRQAAGKEREGVSCIRCSDGSTYYADSVKGRFTISSDNAKNTVYLQMNSLKPEDTAVYYCAASIVPRSKLEPYEYDAWGQGTQVTVSS
B12: VHH 7G08 (VHH, not shown: small tags and cut ends)
VHH: EVQLVESGGGLVQPGGSLRLSCAASGFALDYYAIGWFRQVPGKEREGVSCISSSDGITYYVDSVKGRFTISRDNAKNTVYLQMNSLKPEDTAVYYCATDSGGYIDYDCMGLGYDYWGQGTQVTVSS
B13: VHH 11B07 (VHH, not shown: small tags and cut ends)
VHH: EVQLVESGGGLVQVGDSLRLSCAASGRTFSTYLMVGWFRQAPGKEREFAAGIWSSGDTAYADSVRGRFTISRDNAKNTVYLQMNSLKTEDTAVYYCAGSYDGNYYIPGFYKDWGQGTQVTVSS
B14: VHH 37A09 (VHH, not shown: small tags and cut ends)
VHH: EVQLMESGGGLVQPGGSLRLSCAASGFALDYYAIGWFRQVPGKEREGVSCISSSDGITYYVDSVKGRFTISRDNAKNTVYLQMNSLKPGDTAVYYCATDSGGYIDYDCMGLGYDYWGQGTQVTVSS
B15: VHH 37F02 (VHH, not shown: small tags and cut ends)
VHH: EVQLVESGGGLVQPGGSLRLSCAASGFALDYYAIGWFRQAPGKEREGVSCISSSDGITYYVDSVKGRFTISRDNAKNTVYLQMNSLKPEDTAVYYCATDSGGYIDYDCMGLGYDYWGQGTQVTVSS

What was measured:
[1] = biological target: N-terminally FLAG-tagged mouse Ang2 (HEK293T conditioned medium) (mouse) (UniProt O35608); experiment: competition ELISA, periplasmic extract, FLAG-mAng2 on mTie2/Fc
Sequence of N-terminally FLAG-tagged mouse Ang2 (HEK293T conditioned medium) (mouse) (O35608 19-496 limits assumed): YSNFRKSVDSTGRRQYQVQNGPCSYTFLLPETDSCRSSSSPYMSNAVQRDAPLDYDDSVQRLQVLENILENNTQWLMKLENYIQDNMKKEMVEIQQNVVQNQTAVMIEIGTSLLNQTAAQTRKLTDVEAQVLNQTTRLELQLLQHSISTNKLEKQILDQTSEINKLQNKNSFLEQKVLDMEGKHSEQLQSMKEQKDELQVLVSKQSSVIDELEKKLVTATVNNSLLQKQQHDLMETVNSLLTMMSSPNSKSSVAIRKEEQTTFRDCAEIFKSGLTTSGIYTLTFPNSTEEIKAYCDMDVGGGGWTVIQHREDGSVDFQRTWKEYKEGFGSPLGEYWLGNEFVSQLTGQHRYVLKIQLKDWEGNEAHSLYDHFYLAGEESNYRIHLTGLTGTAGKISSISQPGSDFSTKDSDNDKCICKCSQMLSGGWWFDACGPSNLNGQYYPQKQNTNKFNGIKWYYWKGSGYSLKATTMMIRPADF

[2] = biological target: FLAG tagged human Ang2 (Alexis Biochemicals) (human) (UniProt O15123); experiment: AlphaScreen competition, periplasmic extract, FLAG-hAng2 / biotin-hTie2/Fc
Sequence of FLAG tagged human Ang2 (Alexis Biochemicals) (human) (O15123 19-496): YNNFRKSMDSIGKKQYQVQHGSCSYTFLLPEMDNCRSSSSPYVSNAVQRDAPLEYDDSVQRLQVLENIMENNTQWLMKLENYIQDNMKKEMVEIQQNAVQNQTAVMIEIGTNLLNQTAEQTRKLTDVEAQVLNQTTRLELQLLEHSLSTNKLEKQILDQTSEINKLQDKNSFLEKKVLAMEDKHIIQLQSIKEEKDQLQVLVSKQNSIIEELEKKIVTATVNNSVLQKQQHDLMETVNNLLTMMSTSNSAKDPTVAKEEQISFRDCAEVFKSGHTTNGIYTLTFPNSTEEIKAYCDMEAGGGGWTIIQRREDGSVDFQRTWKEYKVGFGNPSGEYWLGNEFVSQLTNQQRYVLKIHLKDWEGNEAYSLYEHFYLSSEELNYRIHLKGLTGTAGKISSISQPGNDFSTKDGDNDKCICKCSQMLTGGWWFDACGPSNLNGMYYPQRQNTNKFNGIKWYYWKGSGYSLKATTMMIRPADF

[3] = biological target: FLAG tagged human Ang2 (Alexis Biochemicals) (human) (UniProt O15123); experiment: competition ELISA, FLAG-hAng2 (0.02 nM) on coated hTie2/Fc
[4] = biological target: FLAG tagged human Ang2 (Alexis Biochemicals) (human) (UniProt O15123); experiment: as above; remark: listed apart in the source
[5] = biological target: FLAG tagged human Ang2 (Alexis Biochemicals) (human) (UniProt O15123); experiment: competition ELISA, periplasmic extract, FLAG-hAng2 on hTie2/Fc
[6] = biological target: FLAG-tagged recombinant human Ang1 (Alexis Biochemicals) (human) (UniProt Q15389); experiment: competition ELISA, periplasmic extract, FLAG-hAng1 on hTie2/Fc
Sequence of FLAG-tagged recombinant human Ang1 (Alexis Biochemicals) (human) (Q15389 20-498 limits assumed): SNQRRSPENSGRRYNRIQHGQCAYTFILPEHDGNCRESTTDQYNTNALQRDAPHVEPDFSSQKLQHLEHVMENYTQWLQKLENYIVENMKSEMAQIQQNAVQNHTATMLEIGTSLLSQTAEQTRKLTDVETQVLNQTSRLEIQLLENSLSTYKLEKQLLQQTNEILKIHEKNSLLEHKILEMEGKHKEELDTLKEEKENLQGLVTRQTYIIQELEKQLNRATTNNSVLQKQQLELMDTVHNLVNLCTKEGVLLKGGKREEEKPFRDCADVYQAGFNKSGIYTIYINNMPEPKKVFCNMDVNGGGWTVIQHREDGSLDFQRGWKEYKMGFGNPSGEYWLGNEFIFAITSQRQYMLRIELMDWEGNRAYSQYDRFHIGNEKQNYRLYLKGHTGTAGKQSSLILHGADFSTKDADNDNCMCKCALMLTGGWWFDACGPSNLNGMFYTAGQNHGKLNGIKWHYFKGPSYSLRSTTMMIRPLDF

[7] = biological target: FLAG-tagged human Ang2 (human) (UniProt O15123); experiment: competition ELISA: FLAG-hAng2 binding to coated hTie2-Fc
Sequence of FLAG-tagged human Ang2 (human) (O15123 19-496): as the sequence (O15123 19-496) above

[8] = biological target: FLAG-tagged recombinant human Ang1 (human) (UniProt Q15389); experiment: ratio of IC50s in hAng1/hTie2 and hAng2/hTie2 competition ELISA
Sequence of FLAG-tagged recombinant human Ang1 (human) (Q15389 20-498 limits assumed): as the sequence (Q15389 20-498 limits assumed) above

[9] = biological target: FLAG-tagged human Ang2 (human) (UniProt O15123); experiment: competition ELISA: FLAG-hAng2 binding to coated hTie2-Fc; remark: listed apart in the source

Binder | % inh [1] [%] | % inh [2] [%] | IC50 [3] [nM] | IC50 [4] [nM] | % inh [5] [%] | other results
B1 | 4 | 52 | – | – | – | –
B2 | – | 91 | 4.1 | 23 | 96 | –
B3 | 2 | 98 | – | – | 0 | –
B4 | – | 67 | 6.5 | – | 85 | % inh [6]: 14%
B5 | 6 | 78 | – | – | 94 | % inh [6]: 10%
B6 | – | 97 | 1 | 1.1 | 102 | –
B7 | 9 | 90 | – | – | 87 | –
B8 | – | 89 | – | 1.3 | 118 | IC50 [7]: 1.8 nM; hAng1/hAng2 ratio [8]: > 5680
B9 | – | 55 | – | 4 | 112 | % inh [6]: 17%
B10 | 63 | 60 | – | – | 112 | –
B11 | – | – | 3.4 | 6.2 | – | IC50 [9]: 6.6 nM
B12 | – | – | 0.07 | 0.04 | – | –
B13 | – | – | 5.4 | 14 | – | –
B14 | – | – | – | 0.1 | – | –
B15 | – | – | – | 0.08 | – | IC50 [9]: 0.077 nM; hAng1/hAng2 IC50 ratio [8]: > 130000; hAng1/hAng2 ratio [8]: > 130000
